# Source: the supplement of paper PMC6379048
# Assays:
# Experiment in all cases: Kd (EC50 corrected by depletion factor)
# HNRNPA1 = HNRNPA1 (UniProt P09651)
# Outline: (§1)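 To obtain EC50, data were fitted with a four-parameter log-logistic model; Kd was then EC50 multiplied by a protein-dependent depletion factor. Beforehand, free RNA oligos (0 nM to 30 μM) were pre-incubated with HEK293-FT lysate (2.5 mg protein/well) for 1 h at 4°C. The lysate then spent 30 min at 4°C with the same 5′-amino-C6 oligos coupled to NHS-Sepharose beads, and bound proteins were quantified by label-free LC-MS/MS, normalised to the control.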
# CWF19L1 = target: T1, CWF19L1 (UniProt Q69YN2)
# T1 sequence: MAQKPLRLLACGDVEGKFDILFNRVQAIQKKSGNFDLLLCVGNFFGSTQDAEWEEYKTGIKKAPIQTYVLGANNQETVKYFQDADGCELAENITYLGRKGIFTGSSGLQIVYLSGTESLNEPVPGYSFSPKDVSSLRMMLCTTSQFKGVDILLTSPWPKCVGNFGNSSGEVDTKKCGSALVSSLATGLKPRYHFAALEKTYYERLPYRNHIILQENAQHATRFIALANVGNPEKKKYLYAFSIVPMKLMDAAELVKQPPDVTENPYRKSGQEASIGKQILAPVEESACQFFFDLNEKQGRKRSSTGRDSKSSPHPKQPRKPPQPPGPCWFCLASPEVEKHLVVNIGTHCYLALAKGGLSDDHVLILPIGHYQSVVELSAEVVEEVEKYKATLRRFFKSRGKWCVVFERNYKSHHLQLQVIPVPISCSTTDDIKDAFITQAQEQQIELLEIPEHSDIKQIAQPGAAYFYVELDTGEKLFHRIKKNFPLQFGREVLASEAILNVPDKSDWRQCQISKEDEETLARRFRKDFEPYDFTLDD
# Outline: as §1
# PRPF4 = target: T2, PRPF4 (UniProt O43172)
# T2 sequence: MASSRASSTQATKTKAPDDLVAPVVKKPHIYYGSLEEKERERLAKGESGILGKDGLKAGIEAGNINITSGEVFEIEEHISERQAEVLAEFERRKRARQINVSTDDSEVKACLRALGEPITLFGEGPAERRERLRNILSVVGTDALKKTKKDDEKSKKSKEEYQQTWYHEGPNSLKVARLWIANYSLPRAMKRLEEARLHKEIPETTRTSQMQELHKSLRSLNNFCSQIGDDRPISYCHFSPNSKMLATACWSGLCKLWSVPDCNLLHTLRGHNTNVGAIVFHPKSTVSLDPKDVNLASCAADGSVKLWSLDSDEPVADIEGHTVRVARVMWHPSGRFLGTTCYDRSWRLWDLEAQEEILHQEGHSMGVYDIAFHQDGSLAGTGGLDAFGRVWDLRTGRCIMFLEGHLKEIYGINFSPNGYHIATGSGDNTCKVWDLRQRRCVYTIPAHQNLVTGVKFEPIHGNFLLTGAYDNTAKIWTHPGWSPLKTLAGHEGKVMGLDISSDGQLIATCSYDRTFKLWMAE
# Outline: as §1
# RPS10 = RPS10 (UniProt P46783)
# Outline: as §1
# SYNCRIP = target: T3, SYNCRIP (UniProt O60506)
# T3 sequence: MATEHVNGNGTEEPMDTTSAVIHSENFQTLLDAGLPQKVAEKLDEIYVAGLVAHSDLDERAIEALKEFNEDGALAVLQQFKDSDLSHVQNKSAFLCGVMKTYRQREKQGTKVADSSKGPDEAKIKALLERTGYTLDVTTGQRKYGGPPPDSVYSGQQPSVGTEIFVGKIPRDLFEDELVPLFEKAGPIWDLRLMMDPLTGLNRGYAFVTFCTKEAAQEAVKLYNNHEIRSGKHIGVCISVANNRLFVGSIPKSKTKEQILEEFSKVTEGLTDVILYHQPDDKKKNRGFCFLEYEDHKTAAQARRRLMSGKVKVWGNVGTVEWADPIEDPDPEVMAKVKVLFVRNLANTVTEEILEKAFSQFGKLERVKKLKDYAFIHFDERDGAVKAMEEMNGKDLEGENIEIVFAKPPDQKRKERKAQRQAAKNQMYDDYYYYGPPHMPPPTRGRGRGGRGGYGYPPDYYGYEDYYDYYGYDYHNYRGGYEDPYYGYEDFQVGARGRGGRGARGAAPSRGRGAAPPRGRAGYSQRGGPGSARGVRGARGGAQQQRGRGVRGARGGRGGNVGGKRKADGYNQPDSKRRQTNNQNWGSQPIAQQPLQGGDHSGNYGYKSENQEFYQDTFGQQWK
# Outline: as §1
# ZRANB2 = target: T4, ZRANB2 (UniProt O95218)
# T4 sequence: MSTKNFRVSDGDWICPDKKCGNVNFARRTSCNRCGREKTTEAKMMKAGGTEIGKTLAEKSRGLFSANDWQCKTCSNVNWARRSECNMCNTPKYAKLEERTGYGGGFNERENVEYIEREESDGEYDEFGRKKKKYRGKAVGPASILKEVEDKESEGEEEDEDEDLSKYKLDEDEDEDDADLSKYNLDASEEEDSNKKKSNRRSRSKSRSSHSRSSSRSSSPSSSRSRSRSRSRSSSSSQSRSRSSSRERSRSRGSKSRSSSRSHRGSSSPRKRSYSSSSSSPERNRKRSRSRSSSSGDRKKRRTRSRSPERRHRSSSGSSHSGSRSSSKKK
# Outline: as §1
# IFIT5 = target: T5, IFIT5 (UniProt Q13325)
# T5 sequence: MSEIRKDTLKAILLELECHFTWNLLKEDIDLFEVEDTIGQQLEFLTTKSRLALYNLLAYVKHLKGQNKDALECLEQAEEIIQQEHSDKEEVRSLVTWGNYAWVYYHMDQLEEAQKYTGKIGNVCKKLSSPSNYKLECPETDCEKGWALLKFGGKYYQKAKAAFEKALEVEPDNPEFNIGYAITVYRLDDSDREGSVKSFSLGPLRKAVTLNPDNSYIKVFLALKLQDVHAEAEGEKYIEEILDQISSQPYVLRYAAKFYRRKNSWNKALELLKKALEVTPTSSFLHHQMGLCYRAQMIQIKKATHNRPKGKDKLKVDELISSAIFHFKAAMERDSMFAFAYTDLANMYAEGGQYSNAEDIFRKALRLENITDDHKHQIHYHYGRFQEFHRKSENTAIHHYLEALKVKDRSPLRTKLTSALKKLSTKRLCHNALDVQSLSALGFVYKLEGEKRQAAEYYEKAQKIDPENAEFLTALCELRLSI
# Outline: as §1
# Sequence of HNRNPA1 (P09651 whole entry): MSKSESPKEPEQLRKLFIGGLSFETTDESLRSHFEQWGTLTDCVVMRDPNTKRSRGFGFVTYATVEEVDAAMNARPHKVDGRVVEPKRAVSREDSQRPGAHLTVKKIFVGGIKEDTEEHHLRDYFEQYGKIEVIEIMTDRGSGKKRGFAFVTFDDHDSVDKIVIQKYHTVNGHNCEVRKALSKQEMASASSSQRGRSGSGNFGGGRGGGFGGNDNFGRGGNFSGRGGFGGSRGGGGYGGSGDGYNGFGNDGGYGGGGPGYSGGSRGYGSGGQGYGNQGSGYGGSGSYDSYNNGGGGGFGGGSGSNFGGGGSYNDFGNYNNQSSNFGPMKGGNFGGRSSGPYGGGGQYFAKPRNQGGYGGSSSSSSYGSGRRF
sequence,measurement,setting,value
UAUUUAU,Kd,HNRNPA1,1960 nM
same,Kd,CWF19L1,1960 nM
same,Kd,PRPF4,2640 nM
CUGUCCU,Kd,RPS10,116 nM
AAUAAA,Kd,SYNCRIP,252 nM
same,Kd,ZRANB2,217 nM
same,Kd,IFIT5,363 nM
